This series in a line: protease stability score; higher = more stable; yeast display proteolysis, trypsin and chymotrypsin.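 Note: relative to predicted unfolded state with 0 unfolded-like and 1 meaning tenfold more protease.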
With “SEYEEWSERHLKHWEDARDTGDFDSETDLLDPHMRFQLIIGEKRVRFHGMEVLIEHVLRFKNATVREQKSHVEVIDGRIYIRLEGRYDVNGKDFDVEIIIISEKVNGRWILRYIEIRIH”, the protease stability score came out at 1.55.

In the case of “DEEKKVAQTFLELLYRAIHTGDEDEIRRMMDPNYRMEINGKEFHGREDIVHRLVRIEKHLGFKHFHIKDMRTVGDKIDLHTEVIIGDFRWDVHIHIEKVNGRWLQTERRIE”, the protease stability score was 0.521.

In the case of “DEKEELVEYFWEVFLKSLRTGNWHEFVKMFDPDAKSHINGVHSIGRDHIATLILREHEEIRYTEIRERHIEVQGDKIHVHTEVDMFVGDKRIRTERHIHITIVNGRIKSMRVEIR”, the protease stability score stood at 0.958.

In turn, “SEEEEILDKLVKHFIHAFRTGDEDRLNELLDPDAKLVIEYGDKRLEHHGRENVLRAWVELIERIKGVRLEWKEIRPQGDFVESRTQLIVNGREVETEVEIIMFNGRFREFTVRIR” returned a protease stability score of 2.11.

“DDEDHELEWMYRIMLRILETGDEDEYKKFADPNTRLLIDFNGRIIDDHGREHVKRSIFEWLEHARIRRKEKKTERHIDGRVILHMRMDVDVNGRRIDRDVLIIIVVINGKFREVDIQYR” registered a protease stability score of 0.931.

Take “DEIRKMVEESFEIILHSILTGDEHIEEFLADPHVRILINGVTFHGREEFHKLIEHYLKHWRIKDSKVDHVHAQGEKIEMRVTIHGTVDGQEQTREVIIIAKKVDGRWSMKHVEVR”: the protease stability score came to 2.08.

As for “DEEEKLFHDFASHFVRNFLTGNWDMIKRNADPTVQAHIGDKEIHGWDRIVDHLEERLRKIKGMRHHPRRLVFIGEKTYLDTELHFNGVHVETILIVIVVNGRLKSVEFHIE”, the protease stability score stood at 0.695.

“EEDRRMVEDAIRIFLKSLRTGDEESLTRMVDPHVKYHQGEYHMHGREELVRYFAERWEELGVENINTDMRPTHIEFQGEKIIIMGRYHLHVNGRESHTRIEFIATKIDGQWRLHKIRFE” showed a protease stability score of 1.53.

Consider “DEEERDMKIAEEVFLHAMHTGDWKKFFELMDPHVKVHIDGVDLHGREEASKIWKERIDKVKNMTFDVKHSHRQGNKVTLHTELHVNGKTTHLIVVLSKVNGRWTLEEMSEE”, for which the protease stability score was found to be 1.21.

In turn, “TEDDENAKMIMHLLYNHMKTGDFDTLVDMVDPHARNIIDGRELVGWEHFYRWLHELGFNHNELRVRDIKHFDGKVDVDVELILNVGDKHLRIRTTFIVRKVNGRWFIESIRLK” registered a protease stability score of 1.38.

Consider “GDLEHMLESMARLWTHEVLTGDEDTLRRLADPNVRFESHVNGQRVEFHGMEEVAEWMRKHLEEIRSRIELRTIEPQGNKAHVDGTTHLHYNGRTVIKKTHVHLSIVDGKIQRVELELR”, for which the protease stability score is -0.051.

As to “DELRDEVRRWLTKLIEDHKTGDEKAMMELADPNVKVVIDGKELVGMELYEHFVRYWREHIRLTDLKIHDMRIQGDKVHAETRVEGNFNGKYRVIETRVLIVKINGRWFLKEIEID”, the protease stability score came out at 2.02.

For the sequence “SEDERLLREAVEELIHSWETGDFDHVLRMFDPDVRLHFEGRHTHGREVYEQQLRFLWERFKNVRITVEYKHVEVINGKAIVHGKLLLIIGDKTVELTNEIYVRKINGKWLSEEIRIK”, the protease stability score came out at 1.44.

“DENEETMRHYFELLVRNLRTGDWHSLTRLMDPHVRLEYNGREFHGMEEVIRFLLHIRLRHLHLERVEIQGDKVRMHVSVDGEVNGRREEWDVELIARKIDGRWIQTSEIYR” returned a protease stability score of 0.212.

Sequence “EEKEEIDRREMKRFMKAFETGDEHELKELFDPHARVHVGDKVHIGRHNFLRWFKEWIEKYKNVRIELDDVEYQGEKLHLDLTVEINGRRTTQDLVIYKIDGRWLFKNIHVH” came in with a protease stability score of 0.607.

Take “DEREEFVLSMAELWIHAVLTGDEELERQLIDPHARNNINGRTIHGMEMFNKFWIRLLQEIRFEIEIRRFHIQGEKMHFDGVLRLRYDGREEVLRVHVEIVIVDGRLHEVHIKIK”: the protease stability score stood at 1.33.

Sequence “DDEEHEARLAVHELREVQRTGDERQLHELIDPDTRFEFPGVTLHGRENMVEWLARIKNLRVESIHERHISIYNGQVDFDMEMHVRDGNKHRTEKWRIIMYKFDGRWSIKSFESR” returned a protease stability score of 0.961.

In the case of “SEEEELARHAFELWTRSMLTGDEHTMEKLFDPNTRLDINGRDHVGRELFLEFIHRLLREWRFRDVKLEDVKSVNGVLFLKVRLDVEFDGRRYSLTVELIVTKINGKWHMTEIKMH”, the protease stability score was determined as 0.353.

Sequence “DETTKLTEELLRLIWEVLITGDEHLFERLADPHVRVDEIYGDKRIELHGRERVSTRLHELRIKRVELKEIEVFNGRSHANTHVNGHIDGVTFRSDTRWEFVMIDGKLEEVRRKIE” gave a protease stability score of 0.597.

“SEDDEHSRDAFEIFMRLIRTGDWHHLLNLLDPHVRIDFNGREHIGREEATRILVEWRIRNIRLRHYDMVNGRAHFHTESDVEFNGRRDKIEIHMVVLKIDGRWFIHSMIIH” returned a protease stability score of 2.42.

With “DDEDKRLETRARLWFEHFFTGDFEAMLWYLDPDTRLHINGREFHGMEHIVHHLEREILHLRVRIHLRRIKIFDGRLIIDIELEVHYGDKTHRTRAEIILIVVNGRIREIEVRES”, the protease stability score came to 1.5.

“DEEEKSLREMMRQFVEHLETGNFEEIEKMADPNARVRIDGRDFVGREEWHKMFIHLHKHLRLEDSHIHHIDFQGNKIHIHGHIHVVVDGKREHRHFHVIIRKVNGRWTIEEMYIE” had a protease stability score of 1.06.

Consider “SELEEEVRRAVTFWLEALMTGDEESVSHMLDPNVRVDIDGRDLHGREKMIETMKHIRIKHIELTSIKVINGRAHIHTKVDGEFNGRRDTLDVEIIITKINGKWVVKEVNVK”, for which the protease stability score stood at 1.7.

“DEEERDSRIALEIWLHNVRTGDEKSERDNLDPHVRYIVDGRDYIGREDFLHMMSQIRIEEIRIKRFSSYNGRIHMDVHSRVTYNGVDRDIDENLHSTKYDGRWSIHYIEFR” yielded a protease stability score of 1.01.

In the case of “DEVQRDAEEFWRLLVEALVTGDEDLWRKLADPHMRLDVNGVEIHGMEHYLKRIIEEMRRLGVELKDFRLHDVDIQGNKMHLKTHIDGRVNGQKNTRREEYVITKIDGRWQLESIKVH”, the protease stability score was determined as 2.04.

Turning to “SEDERDSKIAAEINRHWLETGDEEHFKKNVDPHTKVRIGDKEYHGRHFLLHILEHHVKHLWFEVRIEDLRLIGDFVHIDMVLFIRVDGRQETFRIRIIAQKIDGRWVVKHINIE”, the protease stability score is 0.097.

“DKEDEDMERIVKEFLHLHLTGDWKLMAELLDPDVRVEFDGKRYHGRENWSKLLEDEFRRIKNATIRIEIKHIDLQGDFARSEVVLHIIVNGVEHRHEMQIDMKVVNGRIHSIRIVRV” came in with a protease stability score of 1.47.

Take “DHKTKMREHAVHEWFDDVITGDERRIREYADPNVRIDIDINGRHEELHGRELFSEILTRFKNVQVEIKHVNHIGDKLHIHFRVHIDGREENVIIIMHKVDGKWVTKRFIIDDA”: the protease stability score was determined as 1.05.

Turning to “TEDERILKELAHLLLLLWKTGDENIWRELADPNVRVIFLIGDKEEHHHGRDMFIKLRHDYGVDHMELRRVDVQGDKVRFEGDLWVDGRIHRVHINFSVINGKVHQIKIDFS”, the protease stability score turned out to be 2.49.

For “DEYWHHMKKSFEDLHDARHTGDERFVMEMLDPNVRFDINGVEFIGREDWRRHLQELGVDHEEIILHDYHIFNGRVELDVRTVHHIGDYELRRDEHMDLRKVNGRWHIKEIRVR”, the protease stability score came out at 0.209.

With “SEKHEDAHRFYEQYLEALRTGDEDLLTELIDPHVKVEIGDKHYHGRDWMIEILRKRKERFPGLKIIIILRRMHIIGDKVFMDVEVRVHQGEKTETHRFEMIVNKINGRWLVDSIHIE”, the protease stability score was determined as 2.08.

Regarding “DEKEEEYHRILREWMHWLLTGDWDKLLNNVDPHAKLTVNGREIHGMHLAVKLLVDTMRELRFHIEVKDTKVFNGVAFVDLRLHIHIGDKEHKNRSEVTLVIIDGRIHTIVIHDR”, the protease stability score was 1.56.

In the case of “DEEKQDMDTAIKIFVEEYKTGDEENLLRNMDPEARVRQGDKHFHGREEVWKFWRRLFHDAGLDNVNVELRHITSQGNKIEVRGVLRIGDKELDVEFILKKVDGRWLIKFILFR”, the protease stability score was determined as 1.91.

“SEEEEEIERMFKDWSRAVRTGDEERYDHLADPNVRIHIGDKDVHGRENFIKYLHHIRIRDVRLRDFRIYDGRVELDIEVDRHVNGRDDRTQVIMVLLKFNGQWHVESVYVK” registered a protease stability score of 1.2.

The sequence “TEEEEKSWRLAEWFFRIIETGNEHEQKRLADPHVQIHIQIDGRHIHLHGWEELMKELKRLGIKYHKIERLRVIGEKIDEEGRLEINGREHDVRIHILIINGRMNSIHIHIE” returned a protease stability score of 1.66.

Regarding “DEEQKEALHFLENLVRSWITGDEETLKRLFDPHYRVHAENRELHGWEDVIHTAVRESEEIRLHHVKIEHLEFVDGQIFIHLNFDIDINGRREHVHTHVILLKINGRWILTKIEFH”, the protease stability score is 1.38.

As to “SEEREDIREIIEILLHHIHTGDWREVTNLMDPNALLVYGDKIFIGREEFHKVIKRHSEEWRIHHVELKDIEVQGNKAHVDGRLDGEIDGRRVTLTTEIIAVKINGRWHVHEIVLK”, the protease stability score came to 1.23.

For “DEEEKYIKSLAKLISHAISTGDFELFHKLVDPDVRLIVDGVDLHGWELATKWIEEIRVEDHEVRVKEVRFVDGRANSDGEVILDGEYNGREKRVERKTILVSLKVDGRWTVKSLEIK”, the protease stability score came out at 0.882.

“SETEKLLHEILEKLIRNEATGNFENIEQLLDPHYRVEIGEFEMHGMEEIIRWLNWVKREMRIKRRHIRTMTWQGDKALVDTELHIQVNGQHIRLDEYIVVLIINGRVKEVRVEHR” registered a protease stability score of 0.943.

“HEHTKMLLDMHRLWMELWLTGDEHELEKLLDPNVRIIIHVNGVDISIHGRETVRRVLRHEIKRYDHLEINLKRHSAYDGKVESDTEFRVIFDGKRIELDTRIKNIVINGRTKEWIFELE” returned a protease stability score of 0.619.

“DERTEEVKRITEEFREAERTGDWERLLELIDPDVRIEIIINGRRETYHGREDAKRVLEEWYKQFKNITLKLREMRIQGDKTDLEVEVNVNGRRHDIRVHLHIVNGRIKEIRIEVI” registered a protease stability score of 1.63.

In turn, “SEEEHHFERWMRVFLHSMRTGDPSSFEELLDPNTRFIYGDKERHGREEANKWAHHLRITHMEDTDFDVYDGVLTIDIRLDFVVNGRRHEVKTHLLVVKIDGRWLINEVEIK” showed a protease stability score of 0.514.

In turn, “DEIEDELRTVYELTVKALTTGNEDLLRNYLDPDTRFIIDGRDLHGMDEINELWREWRIHIHDTKIHSIRTQGNFADVHGRLHGTFIFNGKIEHTTREVRLIFVKVNGRWVINSVVIR” registered a protease stability score of 1.63.

Take “SEDHKASHFNLILLLRAINTGDEDLEKELADPHVRYEFNGVDLVGMEDWVRFLEEIRVHPRDVKIQRHRVVNGRITFDVRLEGEFTYNGRTYRDTRETTAFVLKVNGRWIMHLHRID”: the protease stability score stood at 1.48.

Regarding “SEEEKMVEYAIRLIDSLIRTGDERVLMSLLDPHAKMDVNGKDLIGREFLKHWTHQYKNVKLRDIKVKDAEVQGDKIRIHVELEIEFNGRRDSRDETWYIDKFDGRWLVEEIRVK”, the protease stability score came to 1.15.

As for “TEIEEHIREVSEILTDWIITGNEEMIEKLLDPHARVVIGDKEHHGREVVIRFLRHWRLHRFDHRSFILQGEKAILIGDMDGDINGQRINLHVEEIHIIVDGRLKILEVKYK”, the protease stability score is 2.7.

In turn, “DEEDKFSREAIELWIRVLETGNEHLLHKLADPHVRVVFNGKESVGMEEFVEVLREIRIHTSRDRHVRLQGDKVDVDSIIDGEVNGVRTKVETQLIATKIDGRWVNQQVNWR” came in with a protease stability score of 0.23.

The values above are taken from the NTF2 design screens of Basanta et al. (2020).
